Measurements reported in patent publication US8822645B2, “Prostaglandin E2 dual variable domain immunoglobulins and uses thereof” (AbbVie Inc., priority 2008, dated 2014).

Columns and labels:
[1] = tested on: C57BL6/N mice, LPS/D-Galactosamine-induced lethality; assay: LPS-D-galactosamine-induced lethality; format: in vivo, mouse; conditions: 12 mg/kg IP
Method: Saline alone was used as a negative control. Another group received […] 8C11-1E10, an anti-mouse TNF monoclonal antibody, as a positive control.
At the time of challenge, the mice were injected i.p. with 500 μL dose volume of saline containing 100 ng/mouse LPS (Sigma L4130, lot 095K4056, St. Louis, Mo.) and 20 mg/mouse D-Galactosamine (Sigma G-0500, lot 048K1547, St. Louis, Mo.). The mice were then monitored for lethality twice a day for 48 hours. At 48 hours the remaining surviving mice were sacrificed and bled for plasma antibody levels.

[2] = tested on: PGE2 / human EP4 receptor in HEK293 Gα16 cells; assay: EP4 bioassay (Ca++ flux, neutralization of PGE2); format: cell-based; conditions: PGE2 VD in N-terminal position; EP4 bioassay, Ca++ flux; read-out: N-terminal VD PGE2 Neutralization EC50
Method: The ability of anti-PGE2 antibodies and anti-PGE2 containing DVD-Ig molecules to inhibit the cellular response of PGE2 was determined in a Ca++ flux assay in HEK293 Gα16 cells stably transfected with human EP4 receptor. Cells were plated in black/clear poly-D-lysine plates, (Corning #3667, Corning, N.Y.) and incubated with Ca++-sensitive dye (Molecular Devices) for 90 minutes. Stock PGE2 (in 200 proof ethanol) was diluted with FLIPR buffer (containing 1×HBSS (Invitrogen, Carlsbad, Calif.), 20 mM HEPES (Invitrogen, Carlsbad, Calif.), 0.1% BSA (Sigma, St. Louis, Mo.) and 2.5 mM Probenecid (Sigma, St. Louis, Mo.)). Anti-PGE2 antibodies, DVD-Ig molecules or isotype matched control antibodies were also pre-diluted in FLIPR buffer. 25 μl of PGE2 or pre-incubated PGE2/antibody mixture or pre-incubated PGE2/DVD-Ig molecule mixture was added to the wells pre-plated with cells. A dose response of PGE2 was done by a serial titration of PGE2 and was determined using FLIPR1 or Tetra (Molecular Devices). EC50 was determined using GraphPad Prism 5 (GraftPad Software, La Jolla, Calif.). […] Ca++ flux was monitored using FLIPR1 and data was analyzed using GraphPad Prism 5.
The ability of anti-PGE2 antibodies and anti-PGE2 containing DVD-Ig molecules to inhibit the cellular response of PGE2 was determined in a Ca++ flux assay using stably transfected human EP4 in HEK293 Gα16 cells. Cells were plated in black/clear Poly-D-Lysine plates, (Corning #3667) and incubated with Ca++-sensitive dye (Molecular Devices) for 90 minutes. Stock PGE2 (in 200 proof ethanol) was diluted with FLIPR buffer (containing 1×HBSS, 20 mM HEPES, 0.1% BSA and 2.5 mM Probenecid). Anti-PGE2 antibodies, DVD-Ig molecules or isotype matched control antibodies were also pre-diluted in FLIPR buffer. 25 μl of PGE2 or pre-incubated PGE2/antibody mixture or pre-incubated PGE2/DVD-Ig molecule mixture was added to the wells pre-plated with cells. A dose response of PGE2 was done by a serial titration of PGE2 and was determined using FLIPR1 or Tetra (Molecular Devices). EC50 was determined using GraphPad Prism 5. […] Ca++ flux was monitored using FLIPR1 and data was analyzed using GraphPad Prism 5.

[3] = PGE2-biotinamide ELISA (PGE2 binding); conditions: PGE2 VD in N-terminal position, read-out: Direct Bind ELISA N-terminal VD EC50
Method: (§1) Enzyme linked immunosorbent assays to screen for anti-PGE2 antibodies or anti-PGE2 containing DVD-Ig molecules that bind prostaglandin E2 were performed as follows. ELISA plates (Costar 3369, Corning, N.Y.) were coated with 50 μl of anti-host Fc IgG (Sigma, St. Louis, Mo.) at 2 μg/ml in PBS (Invitrogen Carlsbad, Calif.). Following an overnight incubation at 4° C., the plate was blocked with 200 μl Superblock (Pierce #37535, Rockford, Ill.). The IgG or DVD-Ig containing samples were diluted to 1 μg/ml in Assay Buffer (10% Superblock in PBS containing 0.05% Surfactamps (Pierce #37535, Rockford, Ill.) and incubated on the plate at 50 μl/well for 1 hour at room temperature. Following the incubation, plates were washed four times with TTBS (Tween-Tris Buffered Solution). For PGE2 binding, PGE2-biotinamide (Cayman Chemicals, Ann Arbor, Mich.) was diluted to 30 nM and serially diluted in Assay Buffer. The titration curve was added to each IgG or DVD-Ig sample at a volume of 50 μl/well and incubated for 1 hour at room temperature. The plates were washed as previously described and 50 μl/well of 1:5000 dilution of streptavidin polyhrp40 (Fitzgerald Industries, Concord, Mass.) in Assay Buffer was added and incubated for 45 minutes at room temperature. A final wash step was performed and the plates were developed using a single step TMB system (Sigma #T8665, St. Louis, Mo.) and 2N H2SO4. Plates were read at 450 nm on a Molecular Devices Spectramax plate reader (Sunnyvale, Calif.). EC50 was determined using GraphPad Prism 5 (GraphPad Software, La Jolla, Calif.) (FIG. 2).
as §1, with “ELISA” for “Enzyme linked immunosorbent assays to screen for anti-PGE2 antibodies or anti-PGE2 containing DVD-Ig molecules that bind prostaglandin E2 were performed as follows. ELISA”, “(Invitrogen,” for “(Invitrogen”, “IgG” for “IgG or DVD-Ig”, “Solution).” for “Solution). For PGE2 binding,”, “Calif.).” for “Calif.) (FIG. 2).”

[4] = Size exclusion chromatography, percent monomer of parent antibodies and DVD-Ig constructs; format: physicochemical
Method: Antibodies were diluted to 2.5 mg/mL with water and […] is analyzed on a Shimadzu HPLC system using a TSK gel G3000 SWXL column (Tosoh Bioscience, cat#k5539-05k). […] The HPLC system operating conditions are the following: […]

[5] = tested on: stable cell lines overexpressing a cell-surface antigen of interest or human tumor cell lines; assay: Flow cytometry (FACS) binding to cell surface antigen; format: cell-based; conditions: IL-6R VD in C-terminal position; 2 μg/mL
Method: Stable cell lines overexpressing cell-surface antigen of interest or human tumor cell lines were harvested from tissue culture flasks and resuspended in phosphate buffered saline (PBS) containing 5% fetal calf serum (PBS/FCS). Prior to staining, human tumor cells were incubated on ice with human IgG at 200 μg/ml in PBS/FCS. 1-5×10^5 cells were incubated with antibody or DVD-Ig (1-2 μg/mL) in PBS/FCS for 30-60 minutes on ice. […] After 30 minutes incubation on ice, cells were washed twice and resuspended in PBS/FCS. Fluorescence was measured using a Becton Dickinson FACSCalibur (Becton Dickinson, San Jose, Calif.).
Stable cell lines overexpressing a cell-surface antigen of interest or human tumor cell lines were harvested from tissue culture flasks and resuspended in phosphate buffered saline (PBS) containing 5% fetal bovine serum (PBS/FBS). Prior to staining, human tumor cells were incubated on ice with (100 μl) human IgG at 5 μg/ml in PBS/FCS. 1-5×10^5 cells were incubated with antibody or DVD-Ig (2 μg/mL) in PBS/FBS for 30-60 minutes on ice. […] After 30 minutes incubation on ice, cells were washed twice and resuspended in PBS/FBS. Fluorescence was measured using a Becton Dickinson FACSCalibur (Becton Dickinson, San Jose, Calif.).
The geometric mean is the n root of the multiplication product of n fluorescent signals (a1×a2×a3 . . . an). […]

B1: 8C11: murine anti-mouse TNFα monoclonal antibody clone (antibody, V domains shown)
VH: EFQLQQSGPELVKPGASVRISCKASGYSFTDYNMNWVKQSNGKSLEWVGVINPNYGSSTYNQKFKGKATLTVDQSSSTAYMQLNSLTSEDSAVYYCARKWGQLGRGFFDVWGTGTTVTVSS
VL: QIVLSQSPAILSASPGEKVTMTCRASSSVSYMHWFQQKPGSSPKPWIYATSNLASGVPARFSGSGSGTSYSLTISRVEAEDAATYYCQQWSSSPLTFGAGTKLELKR
With B1 as the molecule, how does the “% Survival” value [1] read?
Its value is 100%.

And the “Mean Plasma Ab Concentration” value [1]?
The value was 65 ± 4.0 µg/mL.

B2: DVD151: DVD-Ig construct listed in Table 4 (antibody)
VH: EVQLVQSGAEVKKPGASVKVSCKASGYTFTKYWLGWVRQAPGQGLEWMGDIYPGYDYTHYNEKFKDRVTLTTDTSTSTAYMELRSLRSDDTAVYYCARSDGSSTYWGQGTLVTVSSASTKGPEVQLQESGPGLVRPSQTLSLTCTVSGYSITSDHAWSWVRQPPGRGLEWIGYISYSGITTYNPSLKSRVTMLRDTSKNQFSLRLSSVTAADTAVYYCARSLARTTAMDYWGQGSLVTVSS
VL: DVLMTQTPLSLPVTPGEPASISCTSSQNIVHSNGNTYLEWYLQKPGQSPQLLIYKVSNRFSGVPDRFSGSGSGTDFTLKISRVEAEDVGVYYCFQVSHVPYTFGGGTKVEIKRTVAAPDIQMTQSPSSLSASVGDRVTITCRASQDISSYLNWYQQKPGKAPKLLIYYTSRLHSGVPSRFSGSGSGTDFTFTISSLQPEDIATYYCQQGNTLPYTFGQGTKVEIKR
Which results are given for B2?
EC50 [2]: 0.036 nM; EC50 [3]: 1.52 nM; % Monomer (purity) [4]: 92.7%; FACS Geometric Mean C-terminal [5]: 0.21
